# Measurements from US20050064507.
# How the values were obtained:
# [1] = system: T1, MLK3 peptide HVRRRRGTFKRSKLRARD (SEQ ID NO:76)
# T1 sequence: HVRRRRGTFKRSKLRARD
# [2] = system: T2, MARCKS peptide KKKKKRFSFKKSFKL (SEQ ID NO:80)
# T2 sequence: KKKKKRFSFKKSFKL
# [3] = system: T3, CACNA1C peptide RGFLRSASLGRRASFHLE (SEQ ID NO:96)
# T3 sequence: RGFLRSASLGRRASFHLE
# [4] = system: T4, PSCD2 peptide AARKKRISVKKKQEQ (SEQ ID NO:93)
# T4 sequence: AARKKRISVKKKQEQ
# [5] = system: T5, ARHGAP6 peptide DGQKRKKSLRKKLD (SEQ ID NO:92)
# T5 sequence: DGQKRKKSLRKKLD
# [6] = system: T6, KCNH2 peptide RQRKRKLSFRRRTDKD (SEQ ID NO:86)
# T6 sequence: RQRKRKLSFRRRTDKD
# [7] = system: T7, ARHGAP4 peptide AGPLRKSSLKKGGRL (SEQ ID NO:98)
# T7 sequence: AGPLRKSSLKKGGRL
# [8] = system: T8, PLEK peptide KFARKSTRRSIRLPE (SEQ ID NO:78)
# T8 sequence: KFARKSTRRSIRLPE
# [9] = system: T9, DGKI peptide NRKKKRTSFKRKA (SEQ ID NO:79)
# T9 sequence: NRKKKRTSFKRKA
# [10] = system: T10, ERN1 peptide KLAVGRHSFSRRSGV (SEQ ID NO:94)
# T10 sequence: KLAVGRHSFSRRSGV
# [11] = system: T11, ASIP peptide KKRSSKKEASMKKVVRP (SEQ ID NO:97)
# T11 sequence: KKRSSKKEASMKKVVRP
# [12] = system: T12, SDPR peptide EKIKRSSLKKVDSLKK (SEQ ID NO:104)
# T12 sequence: EKIKRSSLKKVDSLKK
# [13] = system: T13, AKAP12 peptide AGWRKKTSFRKPKED (SEQ ID NO:99)
# T13 sequence: AGWRKKTSFRKPKED
# [14] = system: T14, CREB1 peptide EILSRRPSYRKILND (SEQ ID NO:106)
# T14 sequence: EILSRRPSYRKILND
# [15] = system: T15, MYBPC3 peptide LLKKRDSFRTPRDSKLE (SEQ ID NO:103)
# T15 sequence: LLKKRDSFRTPRDSKLE
# [16] = system: T16, SYTL4 peptide RQGKRKTSIKRDTVNPL (SEQ ID NO:87)
# T16 sequence: RQGKRKTSIKRDTVNPL
# [17] = system: T17, LIMK2 peptide KATTKKRTLRKNDRK (SEQ ID NO:108)
# T17 sequence: KATTKKRTLRKNDRK
# [18] = system: T18, NCF1 peptide GAPPRRSSIRNAH (SEQ ID NO:101)
# T18 sequence: GAPPRRSSIRNAH
# [19] = system: T19, MACMARCKS peptide KKPFKLSGLSFKRNRKE (SEQ ID NO:88)
# T19 sequence: KKPFKLSGLSFKRNRKE
# [20] = system: T20, p164-RhoGEF peptide PRLIRRGSKKRPAR (SEQ ID NO:82)
# T20 sequence: PRLIRRGSKKRPAR
# [21] = system: T21, SPTBN4 peptide EGGDRRASGRRK (SEQ ID NO:110)
# T21 sequence: EGGDRRASGRRK
# [22] = system: T22, ADD2 peptide KKKFRTPSFLKKSKK (SEQ ID NO:95)
# T22 sequence: KKKFRTPSFLKKSKK
# [23] = system: T23, PRKCM peptide VHYTSKDTLRKRHYWR (SEQ ID NO:91)
# T23 sequence: VHYTSKDTLRKRHYWR
# [24] = system: T24, FLJ20574 peptide GENVLKKSMKSRVKG (SEQ ID NO:113)
# T24 sequence: GENVLKKSMKSRVKG
# [25] = system: T25, ANK1 peptide AQIVKRASLKRGKQ (SEQ ID NO:90)
# T25 sequence: AQIVKRASLKRGKQ
# [26] = system: T26, PLEC1 peptide KRERKTSSKSSVRKRR (SEQ ID NO:81)
# T26 sequence: KRERKTSSKSSVRKRR
# [27] = system: T27, CHRM1 peptide RKIPKRPGSVHRTPSRQ (SEQ ID NO:83)
# T27 sequence: RKIPKRPGSVHRTPSRQ
# [28] = system: T28, NF1 peptide AGSFKRNSIKKIV (SEQ ID NO:102)
# T28 sequence: AGSFKRNSIKKIV
# [29] = system: T29, MAP3K14 peptide WKGKRRSKARKKRK (SEQ ID NO:100)
# T29 sequence: WKGKRRSKARKKRK
# [30] = system: T30, PRKCA peptide RFARKGSLRQKNV (SEQ ID NO:85)
# T30 sequence: RFARKGSLRQKNV
# [31] = system: T31, MARCKS peptide KKKRFSFKKSFKLSGFSFKK (SEQ ID NO:111)
# T31 sequence: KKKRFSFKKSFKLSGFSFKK
# [32] = system: T32, PARIS1 peptide EYLERRASRRRAV (SEQ ID NO:89)
# T32 sequence: EYLERRASRRRAV
# [33] = system: T33, EBNA1BP2 peptide KRPGKKGSNKRPGKR (SEQ ID NO:112)
# T33 sequence: KRPGKKGSNKRPGKR
# [34] = system: T34, NR4A3 peptide KEVVRTDSLKGRRGR (SEQ ID NO:109)
# T34 sequence: KEVVRTDSLKGRRGR
# [35] = system: T35, PPP1R14A peptide QKRHARVTVKYDRRE (SEQ ID NO:107)
# T35 sequence: QKRHARVTVKYDRRE
# [36] = system: T36, DGKZ peptide KKKKRASFKRKSSKKG (SEQ ID NO:77)
# T36 sequence: KKKKRASFKRKSSKKG
# [37] = system: T37, GABRB2 peptide QKKSRLRRRASQLKI (SEQ ID NO:84)
# T37 sequence: QKKSRLRRRASQLKI
# [38] = system: T38, NEURL peptide ALRRPSLRREADD (SEQ ID NO:105)
# T38 sequence: ALRRPSLRREADD
Substance,in vitro phosphorylation (% of best substrate) [1],in vitro phosphorylation (% of best substrate) [2],in vitro phosphorylation (% of best substrate) [3],in vitro phosphorylation (% of best substrate) [4],in vitro phosphorylation (% of best substrate) [5],in vitro phosphorylation (% of best substrate) [6],in vitro phosphorylation (% of best substrate) [7],in vitro phosphorylation (% of best substrate) [8],in vitro phosphorylation (% of best substrate) [9],in vitro phosphorylation (% of best substrate) [10],in vitro phosphorylation (% of best substrate) [11],in vitro phosphorylation (% of best substrate) [12],in vitro phosphorylation (% of best substrate) [13],in vitro phosphorylation (% of best substrate) [14],in vitro phosphorylation (% of best substrate) [15],in vitro phosphorylation (% of best substrate) [16],in vitro phosphorylation (% of best substrate) [17],in vitro phosphorylation (% of best substrate) [18],in vitro phosphorylation (% of best substrate) [19],in vitro phosphorylation (% of best substrate) [20],further results
AKT1,100,6,32,7,2,39,7,2,7,9,10,2,6,12,7,7,1,12,10,9,in vitro phosphorylation (% of best substrate) [21]: 1; in vitro phosphorylation (% of best substrate) [22]: 9; in vitro phosphorylation (% of best substrate) [23]: 5; in vitro phosphorylation (% of best substrate) [24]: 9; in vitro phosphorylation (% of best substrate) [25]: 3; in vitro phosphorylation (% of best substrate) [26]: 9; in vitro phosphorylation (% of best substrate) [27]: 6; in vitro phosphorylation (% of best substrate) [28]: 6; in vitro phosphorylation (% of best substrate) [29]: 3; in vitro phosphorylation (% of best substrate) [30]: 10; in vitro phosphorylation (% of best substrate) [31]: 3; in vitro phosphorylation (% of best substrate) [32]: 1; in vitro phosphorylation (% of best substrate) [33]: 3; in vitro phosphorylation (% of best substrate) [34]: 2; in vitro phosphorylation (% of best substrate) [35]: 3; in vitro phosphorylation (% of best substrate) [36]: 8; in vitro phosphorylation (% of best substrate) [37]: 10; in vitro phosphorylation (% of best substrate) [38]: 12
PKA,69,3,86,1,18,87,21,5,3,5,1,1,1,30,3,64,0,100,3,10,in vitro phosphorylation (% of best substrate) [21]: 1; in vitro phosphorylation (% of best substrate) [22]: 2; in vitro phosphorylation (% of best substrate) [23]: 3; in vitro phosphorylation (% of best substrate) [24]: 0; in vitro phosphorylation (% of best substrate) [25]: 3; in vitro phosphorylation (% of best substrate) [26]: 2; in vitro phosphorylation (% of best substrate) [27]: 2; in vitro phosphorylation (% of best substrate) [28]: 5; in vitro phosphorylation (% of best substrate) [29]: 2; in vitro phosphorylation (% of best substrate) [30]: 81; in vitro phosphorylation (% of best substrate) [31]: 3; in vitro phosphorylation (% of best substrate) [32]: 4; in vitro phosphorylation (% of best substrate) [33]: 0; in vitro phosphorylation (% of best substrate) [34]: 1; in vitro phosphorylation (% of best substrate) [35]: 2; in vitro phosphorylation (% of best substrate) [36]: 4; in vitro phosphorylation (% of best substrate) [37]: 63; in vitro phosphorylation (% of best substrate) [38]: 84
